The assay concerns the target protein having a molecular weight of about 44,000 which constitutes the membrane-bound alcohol dehydrogenase complex of Acetobacter altoacetigenes MH-24 (cytochrome c) (Acetobacter altoacetigenes MH-24).

In turn, “protein having a molecular weight of about 72,000 which constitutes the membrane-bound alcohol dehydrogenase complex of Acetobacter altoacetigenes MH-24 (enzyme)” registered an ADH enzyme activity (U/mg protein) in cell homogenate of transformed ADH-deleted mutant 10-80 of 0.4 U/mg protein.

The record behind these values is patent US5344777.
